In article doi:10.1101/2025.03.16.643548:

Target: MUC2C-N (human MUC2 4256-4803, C4786A; PTS3, VWCN, D4 and VWC1) (human)
Assay: cross-linking

stoichiometry N: 2
Substance: MUC2C-N (human MUC2 4256-4803, C4786A; PTS3, VWCN, D4 and VWC1) (domain or fragment)
